From the supplement of paper PMC9170038 come the findings set out here.

The data set has as its system MS2 coat protein. Put plainly: apparent KD of MS2 coat protein; designed switch direction (-1 OFF switch, 1 ON switch): -1; higher = weaker reporter binding. In short, it runs like this: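 On Illumina chips, designed RNA switches with common flanks were made by stalled E. coli RNA polymerase. Titrations with SNAP-549-labelled MS2 coat protein, doubling from 0.7 or 1.5 nM to 3 µM, were done with no input, with 200 uM small-molecule ligand, or with an oligonucleotide input. Apparent KD is the median per design over clusters, from curve fits of normalised cluster fluorescence.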

Setting [1] is: input ligand: microRNA oligo, concentration not stated.
[2] abbreviates: Eterna round: R95, input ligand: microRNA oligo, concentration not stated.
Where [3] appears, read: Eterna round: R95, input ligand: FMN 200 uM.
Where [4] appears, read: Eterna round: R95, input ligand: none.

With “AAAAUAAAGGCAGGAUAUCGGAGGCGCUGGCACCGAGAAGGGCCAGGGUGUCGUCAAAACAUGAGGAUCACCCAUGUGAGUGAC [Maanated] (Eterna round: R96, puzzle: Exclusion NG 1)”, the “apparent KD of MS2 coat protein” value (input ligand: FMN 200 uM) came out at 0.0176 µM, the “apparent KD of MS2 coat protein” value under setting [1] was 0.0127 µM and the “apparent KD of MS2 coat protein” value (input ligand: none) was determined as 0.023 µM.
Take “AAAAUGUGAGGAUAUCCAAUAUAUGACAUGAGGAUCACCCAUGUUUCCACUCGUACCUCCGGAGAAGGCACUAAAA [Ex5 #42] (Eterna round: R97, puzzle: Exclusion 5)”: the “apparent KD of MS2 coat protein” value by setting is: (input ligand: FMN 200 uM) 0.0219 µM; (input ligand: none) 0.029 µM.
Turning to “AAACAAGCAACGAGAUCCCACAUGAGGAUCACCCAUGUCAACUGGAGUUUUAAAUCUUUAGGCUCGUUUUAUAACAA [S_tov1_V1.2] (Eterna round: R97, puzzle: Sensor, turn-off variant 1)”, the “apparent KD of MS2 coat protein” value reads like this: (input ligand: FMN 200 uM) 0.0504 µM; (input ligand: none) 0.0568 µM.
In the case of “AAACCCUGAGGAUAUACAUAACAACAAAUCCUCACGUGCCAACAUGAGGAUCACCCAUGUAGAAGGCAGGCCAA [Mod R3 Insanara 5 - Jieux - Exclusion 2] (Eterna round: R97, puzzle: Exclusion 2)”, the “apparent KD of MS2 coat protein” value was found to be 0.0492 µM (input ligand: FMN 200 uM) and 0.0158 µM (input ligand: none).
For the sequence “AAACCCUGAGGAUAUGCAUAACAACAAAGCCUCACGUGCCAACAUGAGGAUCACCCAUGUAGAAGGCAGGCCAA [Mod R3 Insanara 15 - Jieux - Exclusion 2] (Eterna round: R97, puzzle: Exclusion 2)”, the “apparent KD of MS2 coat protein” value runs as follows: (input ligand: FMN 200 uM) 0.0207 µM; (input ligand: none) 0.0153 µM.
Turning to “AAACUACUUGGGCUGACACAUGAGGAUCACCCAUGUGGAGGGCAGGAUAUGCCCAUAAAAUUGGCGCAGAAGGGCCCACGUAGA [Tegesousbe] (Eterna round: R96, puzzle: Exclusion NG 3)”, the “apparent KD of MS2 coat protein” value (input ligand: FMN 200 uM) amounted to 0.0171 µM, the “apparent KD of MS2 coat protein” value under setting [1] came out at 0.00689 µM and the “apparent KD of MS2 coat protein” value (input ligand: none) was determined as 0.0139 µM.
In the case of “AAACUCUAAGUCAGGAUAUGGCAACGCUAAGGCGACCAGAAGGGACUUGAGGAUCACCCAAGUACCGCUUGUGG [Orardi] (Eterna round: R97, puzzle: Brourd's mod of Exclusion 4)”, the “apparent KD of MS2 coat protein” value is, setting by setting: (input ligand: FMN 200 uM) 0.409 µM; (input ligand: none) 0.0427 µM.
As to “AAACUGUGAGGAUAUGGUGAGUAGUGCCUGAGCGCUGCUCACCAGAAGGCACAUGAGGAUCACCCAUGUAUAAC [Mat - Exclusion 4 - Mod of JL - D5] (puzzle: Exclusion 4)”, under setting [2], the “apparent KD of MS2 coat protein” value came out at 0.0224 µM.
For “AAAGUGCUGCGAGGAUAUACAUGAGGAUCACCCAUGUGGAUGUCUGAGGCAAAGCCUCAGACAAUGUAGAAGGCGCAGUACUAA [Mat - Exclusion NG 2 - Mod of JL - D56] (Eterna round: R96, puzzle: Exclusion NG 2)”, the “apparent KD of MS2 coat protein” value is, setting by setting: (input ligand: FMN 200 uM) 0.0873 µM; under setting [1], 0.0182 µM; (input ligand: none) 0.027 µM.
With “AAAGUGUGAGGAUAUCCGGGACUGGGCCGGGAGGUUCGGAAGGAGAAGGCACAUGAGGAUCACCCAUGUAACGG [Excls4-X] (puzzle: Exclusion 4)”, under setting [2], the “apparent KD of MS2 coat protein” value is 0.0469 µM.
For “AAAUACGCUGAGGAUAUGCGGCGCACAAAAUAAGCAGAAGGCAGCACUUGAGGAUCACCCAAGUGGCCCGAGAA [Enusrees] (Eterna round: R97, puzzle: Exclusion 6)”, the “apparent KD of MS2 coat protein” value stood at 0.0155 µM (input ligand: FMN 200 uM) and 0.008 µM (input ligand: none).
As for “AAAUAUCAUGUAGGAUAUGGUAGGCGAACCUUACCAGAAGGACAUGAGGAUCACCCAUGUGCUGAGUUGUCCGUAGACAGCUCU [Ex NG1 #4] (Eterna round: R96, puzzle: Exclusion NG 1)”, the “apparent KD of MS2 coat protein” value was found to be 0.0741 µM (input ligand: FMN 200 uM), 0.0637 µM under setting [1] and 0.0787 µM (input ligand: none).
Turning to “AAAUGCAAGCAAAGAUCUUACAUGAGGAUCACCCAUGUGCUCGUCUUAUAAAGUACUAUCACGAAAGUGAUAGUACA [Sensor 3, v1 - 28] (puzzle: Sensor v3, turn-off variant 1)”, the “apparent KD of MS2 coat protein” value was found to be 0.0259 µM under setting [3], 0.0909 µM under setting [2] and 0.0181 µM under setting [4].
In the case of “AAAUGGGCGUAGGAUAUGAGAUGGUCUAGCAGCUCAGAAGGACGCACAUGAGGAUCACCCAUGUGAUCGGACUA [Celebidi] (Eterna round: R96, puzzle: Exclusion 6)”, the “apparent KD of MS2 coat protein” value is, setting by setting: (input ligand: FMN 200 uM) 0.281 µM; under setting [1], 0.0278 µM; (input ligand: none) 0.0348 µM.
As to “AAAUGGGCGUAGGAUAUGAGAUGGUCUAGCAGCUCAGAAGGACGCACAUGAGGAUCACCCAUGUGAUCGGACUA [Celebidi] (puzzle: Exclusion 6)”, under setting [2], the “apparent KD of MS2 coat protein” value turned out to be 0.0297 µM.
As for “AAAUUACAAGCAAGAUCCUACAUGAGGAUCACCCAUGUGCUCGUCUUAUAAAGUACUAUCACGAAAGUGAUAGUACA [Mat - Sensor v3 - turn-off var 1 - Eli Mod - D58] (puzzle: Sensor v3, turn-off variant 1)”, the “apparent KD of MS2 coat protein” value was 0.256 µM under setting [3], 0.304 µM under setting [2] and 0.329 µM under setting [4].
